Our source for the Km, kcat and kcat/Km values is paper PMC10770758, “Protocatechuate hydroxylase is a novel group A flavoprotein monooxygenase with a unique substrate recognition mechanism” (The Journal of Biological Chemistry, 2023).

Substrate in series [1]: O=C(O)c1ccc(O)c(O)c1
The series is described as follows: purified protein. Particulars: apparent, 0.25 mM NADPH, 20 mM Tris-HCl pH 7.9, 25 °C.

Substrate in series [2]: O=C(O)c1ccc(O)cc1
The series is described as follows: purified protein. The note with it: apparent, 0.25 mM NADPH, 20 mM Tris-HCl pH 7.9, 25 °C.

B1: XaPobA (Xylophilus ampelinus) (protein)
chain: MRTQVGIVGAGPAGLMLAHLLRREGIDAVVIERAAREHVRTRLRAGVLEQGTVEMLREAGVGGRIDAVGMEMHAIDFRFGGRSHRLDFHEASGGRRAWVYPQHEVVTDLMSACDAGDVPILYEAPVERIEGLEDDRARIVFGQDGAAGEITCDFVAGCDGFRGVSRGSMPAGIARGYDRIYPFGWLGILADAPPASPDVTWGCSDRGFAMMSMRSPTVTRLYLQCEPDEDPDAWSDDRIWSELHRRLDVEGMPSLREGPIRDKGVTAMRSFLSEPMQHGRLFLAGDAAHIVPPTGAKGLNSAMADIKVLAAALVDHYRHGRSDRLATYSERCLRRMWLVQRFSAALCTMVHQFPGQNEFVRRLQRADLDYMTGTHAGRLQFAENFTGLPIE
Turning to B1, the Km was 3.7 ± 0.9 × 10^−1 mM in “purified protein [1]” and 4.3 ± 0.3 × 10^−1 mM in “purified protein [2]”.

B2: PkPobA (Pigmentiphaga kullae) (protein)
chain: MSERTQVGIVGAGPAGLLLSHLLHREGIESIVFDNRSREHVQQRLRAGVLEQGTVDLLAEVGLGERMRRLGMPQTSLDFRYAQASHRIDFAQEIGRTVMVYPQHEVVHDLIEARLAAGGDLRFDTPVTAIRDLEGPSPTILAGPEGRPVRCDFIAGCDGFHGICRDAIPASVMKAYDRVYPFGWLGILAEVPPAAPDVTWGCHETGFAMLSFRSPTRSRLYLQCEPDDDPDNWSDDRIWSALHERLDVPGMPPLIEGPIVQKGVTAMRSFQVEPLRHGALFLAGDAAHIVPPTGAKGLNSAVADIRVLGRALAAYYRQGSTRLLDSYSETCLRRMWLVHRFSAGLCTMVHSFPGQSDFARRLQRADLDYMTGSEPGRRAFSENFTGLPIEA
For the protein B2, in the series “purified protein [1]”, the Km was 3.2 ± 0.7 × 10^−1 mM; the kcat (commonly the number of substrate molecules converted per active site and unit of time at saturation) is 1.1 ± 0.1 s⁻¹; the kcat/Km – broadly, the turnover number divided by the Michaelis constant – worked out at 3700 ± 600 M⁻¹ s⁻¹. Further, the Km in the series “purified protein [2]” is given as 3.7 ± 1.8 × 10^−1 mM.

B3: PaPobA (Pseudomonas aeruginosa PAO1) (protein)
chain: MKTQVAIIGAGPSGLLLGQLLHKAGIDNVILERQTPDYVLGRIRAGVLEQGMVDLLREAGVDRRMARDGLVHEGVEIAFAGQRRRIDLKRLSGGKTVTVYGQTEVTRDLMEAREACGATTVYQAAEVRLHDLQGERPYVTFERDGERLRLDCDYIAGCDGFHGISRQSIPAERLKVFERVYPFGWLGLLADTPPVSHELIYANHPRGFALCSQRSATRSRYYVQVPLSEKVEDWSDERFWTELKARLPSEVAEKLVTGPSLEKSIAPLRSFVVEPMQHGRLFLAGDAAHIVPPTGAKGLNLAASDVSTLYRLLLKAYREGRGELLERYSAICLRRIWKAERFSWWMTSVLHRFPDTDAFSQRIQQTELEYYLGSEAGLATIAENYVGLPYEEIE
For B3, in the series “purified protein [1]”, the Km was 1.3 ± 0.2 × 10^−1 mM.
